According to the supplement of paper PMC12764529:
± gives the half width of the 95% confidence interval.

Columns and labels:
[1] = folding stability dG unfold from trypsin proteolysis; higher = more stable
In short: (§1)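 K50 was inferred by Bayesian fitting of sequencing counts obtained after protease digestion of designed mini-proteins. Unfolding free energy was derived by comparison with a sequence-predicted unfolded-state K50 and a shared folded-state K50, for each protease or both combined. The mini-proteins were under 80 residues, had no cysteine, were carried in a PA-tagged cDNA display construct, and were kept only if AlphaFold2 dimer inter-PAE exceeded 15.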

[2] = folding stability dG unfold from chymotrypsin proteolysis; higher = more stable
In short: as §1

[3] = folding stability dG unfold (combined trypsin and chymotrypsin); higher = more stable
In short: as §1

| Sequence | folding stability dG unfold [1] [kcal/mol] | folding stability dG unfold [2] [kcal/mol] | folding stability dG unfold [3] [kcal/mol] |
| --- | --- | --- | --- |
| SEKPEVTIKIEVEEREDGYLVVRVEVTFPEDPEKVELTLEMSREEAEELAKKLAEELPGVKVKVEIVELPSA [r9_374_TrROS_Hall] | 2.41 ± 0.17 | 2.4 ± 0.17 | 2.44 ± 0.14 |
| SAGGSAGGSAGGSMVLTTTVEETVVDENGVETKITVKTYKLPDSEITLVTFPDGTVTPESAGGSAGGSAGGS [r10_404_JUSTAS] | 0.493 ± 0.023 | 0.462 ± 0.1 | 0.493 ± 0.072 |
| SKFKIDEIKYEPNKPYTIKVKLPDGTTIEIKYDPNKPNEVKIILTHPDGSKKEFTLPYNYPININLKVNPSA [r9_875_TrMRF] | 1.59 ± 0.031 | 2.05 ± 0.081 | 1.95 ± 0.083 |
| SAGGSAGGSAGGMSFPVSSVEYRKDPNSDTPLVFITLPDGTVIIERLDTGTSSVVPVSQLSAGGSAGGSAGG [r11_922_JUSTAS] | 1.12 ± 0.037 | 1.3 ± 0.15 | 1.21 ± 0.067 |
| SAGGMYVLPIDLDPASLTEEERLAVARELAEELYAAGVPGDVMLIIPREEKPLTITIDFATGEVTVVDSAGG [r19_204_JUSTAS] | 1.32 ± 0.045 | 1.22 ± 0.055 | 1.31 ± 0.048 |
| SAGGSLLEQEAAARGYQVEIERIPGTGVYLVTLTPPDGSRVVVTVEVVKTPKTGLVELRTLETRELPPSAGG [r13_936_JUSTAS] | 1.24 ± 0.023 | 1.707 ± 0.011 | 1.53 ± 0.052 |
| SAGMMYKITIKTKNGEKIEIEIPAEELENLTEEQLKELAKELAKKLEEEGIEVEKVEVKIEPVKPEELSAGG [r19_334_TrROS_Hall] | 3.3 ± 0.23 | 2.93 ± 0.058 | 3.04 ± 0.13 |
| SAGGSAGGMTFTIPPGKPVTIRVYNRNGELIEEVTVTGAGARIHVSEIPGTGELKITRIDEIPPSAGGSAGG [r6_523_TrMRF] | 2.33 ± 0.049 | 2.91 ± 0.071 | 2.72 ± 0.087 |
| SAGGSAGGSAGGDPDDKPPKIEWKPIEYSFYLPNGWMISDEIWVFPDNGAILISIEIMPSAGGSAGGSAGGS [r10_881_TrROS] | 2.48 ± 0.21 | 3.67 ± 0.31 | 3.37 ± 0.95 |
| SAGGSAGGSKVEVKEFEFKANGSKALIEKLEDGSVKIIVLGEEPKEYEISPEEPIVILPGFEVSAGGSAGGS [r12_1003_TrMRF] | -0.341 ± 0.068 | -0.172 ± 0.1 | -0.172 ± 0.09 |
| SAGGSAGGSAETVTITLTVPPGASVEEILAALKAKYPDITSVSVERREDGYLKVTVTVRLDSAGGSAGGSAG [r3_371_TrROS_Hall] | 5.28 ± 0.47 | 4.02 ± 0.068 | 4.46 ± 0.074 |
| SAGGSAGGSAAYTTPDGTNIILKDPNRPVVSLYKKDPSTNTWTPVSTLPISEVPEEILELLSAGGSAGGSAG [r3_241_JUSTAS] | 0.426 ± 0.022 | 0.583 ± 0.079 | 0.599 ± 0.062 |
| SAGGSAGGSAGNSVTILPIPETDKYLVVVSDNSGKFTVFDVDSSDLEDVVKALPSNYTVTSAGGSAGGSAGG [r11_569_TrMRF] | 0.881 ± 0.025 | 1.13 ± 0.051 | 1.04 ± 0.048 |
| SAGDNLKIDVEVEPAKVILGEFDENGKLIKPIEKDVLIVKVTVTFSNGKKLEIRATFFDGKLISVSSGSAGG [r19_44_TrMRF] | 3.56 ± 0.16 | 5.26 ± 0.086 | 5.07 ± 0.19 |
| SAGLGLEKAKKLAEKIAETLKKELEKELGIPADQIKVEAKVEKLPDGSYKITVKINLKDIPIEKVFYVDSAG [r14_226_TrMRF] | 3.5 ± 0.52 | 2.9 ± 0.069 | 2.87 ± 0.31 |
| SAGGSVITEEEKEKIKKEYPNLDIKLKALKPGETITYPNGTKVYGSPNGFLVEITNPDGTKTVIKESAGGSA [r2_166_JUSTAS] | 0.638 ± 0.026 | 0.498 ± 0.16 | 0.604 ± 0.11 |
| SAGGSAGGSMPKKTYEFEIEYEDPEEAVEKAIREFEEETGEKIEEVEVEYDPEKGIVKITLVKSAGGSAGGS [r12_265_JUSTAS] | 0.921 ± 0.066 | 1.44 ± 0.088 | 1.27 ± 0.21 |
| SAGGSAGGSAGKKYKVKVILQPKGEDKPLEIEIEVESLEEAKELLEKAFPDTRIRIDVIESAGGSAGGSAGG [r17_428_TrMRF] | 1.99 ± 0.098 | 2.93 ± 0.088 | 2.59 ± 0.18 |
| SAGGSAGGSAGSVIVTSTTSTLPNGTVVTNETVSDPSNPGVTTKKTSTTYPDGSVTTTESSAGGSAGGSAGG [r11_483_JUSTAS] | 0.213 ± 0.043 | 1.73 ± 0.047 | 1.36 ± 0.057 |
| SENKPVTVLVNVTKNEDGTYTARVFVFDENGKLLAEEEVEAPLEKAVELVEALKKAYPNAKVVAVFTEGLSA [r9_374_TrMRF] | 3.63 ± 0.23 | 4.81 ± 0.21 | 4.67 ± 0.2 |
| SAGMVIKVEVIYNGKKYTIEISEEQLKELLEKLKPGDEVEIEINGEKVLVRVEVVEPPEPSEEELKALKSAG [r5_669_TrROS_Hall] | 0.944 ± 0.087 | 2.1 ± 0.2 | 1.69 ± 0.24 |

| Sequence | folding stability dG unfold [1] [kcal/mol] | folding stability dG unfold [2] [kcal/mol] | folding stability dG unfold [3] [kcal/mol] |
| --- | --- | --- | --- |
| SAMKVYIAASSPEEIEGWIEEARKAGIDGPELIFVSPDDRVYKAEIIPNTGEVKIEPVKPIEELLKELPSAG [r14_913_TrMRF] | 1.09 ± 0.11 | 0.788 ± 0.4 | 0.955 ± 0.34 |
| SAGGSAKVKIEVIELPPGMTEEELRKLAEEKGLKVEKVDKENLLVKITAKSKEEAEKIKKELEEKLSAGGSA [r15_546_TrROS_Hall] | 0.449 ± 0.14 | 0.748 ± 0.13 | 0.511 ± 0.27 |
| SAGMSEEERKAAEEASKPPVKVETLTVTVLVEVDGKLYLVRATITRVVLPDGSIVTELKIEIIPLEDLSAGG [r19_11_TrROS_Hall] | 3.05 ± 0.21 | 4.26 ± 0.33 | 3.88 ± 0.3 |
| SAGGSASVTTTVTLPNGEVVTITFDPANPTTATLSFPDGTTVTLSFSSPEEALARAIEELLAGKPLSAGGSA [r15_38_JUSTAS] | 2.99 ± 0.1 | 2.01 ± 0.056 | 2.48 ± 0.081 |
| SAGGSAMSKDVLFENGARITKFFPGKNYVIIETSPENPELLKELGITVIKEGPNRIIVPAKDFLDESAGGSA [r15_984_TrMRF] | -1.28 ± 0.74 | -0.821 ± 0.78 | -0.864 ± 0.8 |
| SAGGSAGGSAGMKIKTKNGEVIEIKVDKKTGKIEITFPDGKKITIDAPNLTIEDIKKLLESAGGSAGGSAGG [r11_729_TrMRF] | 2.47 ± 0.064 | 2.34 ± 0.047 | 2.36 ± 0.051 |
| SAGGSAGGSTLTVEIQITDADGNTLTAKVTLTFEPAPPPPPPPTVERRTTTVDGKTVTEYRRLSAGGSAGGS [r12_128_TrROS_Hall] | 0.631 ± 0.18 | 1.04 ± 0.22 | 0.969 ± 0.13 |
| MKIEIEIEREEDRVIVRIKIERKDGKEIELELEVPSLEEALEAIEKILASLPPEEVKIVEIEIYNADGEKIS [r1_169_TrROS_Hall] | 2.53 ± 0.14 | 1.85 ± 0.086 | 2.21 ± 0.2 |
| SAGGSAGGSAGSITFTVPASEFTEEEILERLVEELGIPREKVDLVEIKETPDGKLKVTIKIPSAGGSAGGSA [r18_118_JUSTAS] | 2.86 ± 0.085 | 2.488 ± 0.021 | 2.63 ± 0.06 |
| SAGGMTLTLVLEANPPEAVEVAVARLLRELGFPDELKIEIDPVGDDKGRIIYPVTIEVNVPELAEKASAGGS [r8_85_TrMRF] | 2.19 ± 0.042 | 2.62 ± 0.036 | 2.41 ± 0.13 |
| SAGGETKTLTIKFYDPKTGKLVAEVTITYTPEKVTVTIRFADGTTETVEMTAEELLAKLPPGAVIVPSAGGS [r16_543_TrROS_Hall] | 3.79 ± 0.11 | 4.46 ± 0.22 | 4.31 ± 0.16 |
| SAGGRIHIPIPLNQAREILKKLAPDGRDVTAEPQGPSKDNVYYTIEFEPPKNGNEVDIEIWIPPPGDSAGGS [r16_486_TrROS] | -0.000485 ± 0.1 | -0.234 ± 0.36 | 0.0968 ± 0.18 |
| SAGGKPKPGQEVEMKMIMLMVTKPGEITIMRMKMEMRVNPDGNVQMDMKMEMVRVPLSKDQAKELLNASAGG [r13_544_TrROS] | 2.68 ± 0.07 | 4.25 ± 0.24 | 3.69 ± 0.36 |
| SQNGGPKRKVTITIIIVIPPGQRNPDGKPRPSVEELARYLQKELQEQFPGNKDVKIDITIIPLGDPEQIKSA [r9_329_TrROS] | 2.06 ± 0.069 | 2.86 ± 0.15 | 2.33 ± 0.21 |
| SAGGSAGGSAFKLPPGKKITIFFDPENGNFAIMVPDGNERRVPMPAEELIKLGFPVEIIGPWSAGGSAGGSA [r18_125_TrROS] | 0.365 ± 0.14 | 0.566 ± 0.25 | 0.517 ± 0.19 |
| SAMVYPYLLRVYLPGSGEVVYFPASSLEEAVELLEEVAALPNVNSVDLYTPDGTKVHFLIDVPPEAFEESAG [r14_747_TrMRF] | 2.67 ± 0.12 | 2.891 ± 0.022 | 2.77 ± 0.066 |
| SAGGSAGGSAGGTGPPPVKTLVIVANWTEEQAEALKKAFPDQEVTVYEIPGLPKTVAVVSSAGGSAGGSAGG [r17_254_TrMRF] | 0.833 ± 0.03 | 1.42 ± 0.086 | 1.16 ± 0.17 |
| SAGGSAGGSAGGSGPPKLRLLRRVEVVYDGLVLPPNFPLPPSAPPNLKVFVSLVTLPEGSAGGSAGGSAGGS [r4_436_TrMRF] | 3.11 ± 0.091 | 1.83 ± 0.25 | 2.35 ± 0.43 |
| SAGGSAGGKRTVQIQFPMGPQWLDKLRDAFPNVDIEELEYDEGPGWHRIKIKVDSPEKIRDFIKSAGGSAGG [r6_334_TrROS] | 0.63 ± 0.19 | 1.41 ± 0.079 | 0.991 ± 0.18 |
| SAGGSAGGSAGWYFPIDELQKEHPNMSPETIADFFQKDGYKIEVEPVGPEPWVKIEPPEKSAGGSAGGSAGG [r11_707_TrROS] | 0.658 ± 0.07 | -0.513 ± 0.67 | 0.242 ± 0.12 |
| SAGGKPNEKVKIKIKNKDGSEETIEIKVDEEVKIKIKFNGEEKEITIKKGETLTITLENAEIEVEKVSAGGS [r16_456_TrROS_Hall] | 1.95 ± 0.16 | 1.83 ± 0.22 | 1.94 ± 0.31 |
